According to IntAct's records for PubMed 31515488:

B1: Four and a half LIM domains protein 5 (Homo sapiens), Q5TD97 (parent)
chain: MTTAHFYCQYCTASLLGKKYVLKDDSPYCVTCYDRVFSNYCEECKKPIESDSKDLCYKDRHWHEGCFKCTKCNHSLVEKPFAAKDERLLCTECYSNECSSKCFHCKRTIMPGSRKMEFKGNYWHETCFVCENCRQPIGTKPLISKESGNYCVPCFEKEFAHYCNFCKKVITSGGITFCDQLWHKECFLCSGCRKDLCEEQFMSRDDYPFCVDCYNHLYANKCVACSKPISGLTGAKFICFQDSQWHSECFNCGKCSVSLVGKGFLTQNKEIFCQKCGSGMDTDI
partner: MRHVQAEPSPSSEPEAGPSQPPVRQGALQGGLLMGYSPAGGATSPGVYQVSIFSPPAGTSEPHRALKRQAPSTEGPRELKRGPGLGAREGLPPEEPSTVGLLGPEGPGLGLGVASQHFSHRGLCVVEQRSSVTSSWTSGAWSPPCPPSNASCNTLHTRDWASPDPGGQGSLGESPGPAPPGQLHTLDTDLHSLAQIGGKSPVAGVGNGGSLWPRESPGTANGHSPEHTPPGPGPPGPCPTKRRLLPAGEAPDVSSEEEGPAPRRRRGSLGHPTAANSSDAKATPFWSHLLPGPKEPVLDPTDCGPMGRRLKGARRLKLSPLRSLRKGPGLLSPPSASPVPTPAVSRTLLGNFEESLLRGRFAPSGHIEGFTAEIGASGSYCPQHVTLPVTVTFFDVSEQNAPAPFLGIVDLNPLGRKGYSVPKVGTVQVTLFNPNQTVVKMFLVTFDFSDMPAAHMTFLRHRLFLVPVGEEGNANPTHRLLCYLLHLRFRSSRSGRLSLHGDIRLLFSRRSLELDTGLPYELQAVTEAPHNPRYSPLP
B2: Plakophilin-2 (Homo sapiens), Q99959 (parent)
chain: MAAPGAPAEYGYIRTVLGQQILGQLDSSSLALPSEAKLKLAGSSGRGGQTVKSLRIQEQVQQTLARKGRSSVGNGNLHRTSSVPEYVYNLHLVENDFVGGRSPVPKTYDMLKAGTTATYEGRWGRGTAQYSSQKSVEERSLRHPLRRLEISPDSSPERAHYTHSDYQYSQRSQAGHTLHHQESRRAALLVPPRYARSEIVGVSRAGTTSRQRHFDTYHRQYQHGSVSDTVFDSIPANPALLTYPRPGTSRSMGNLLEKENYLTAGLTVGQVRPLVPLQPVTQNRASRSSWHQSSFHSTRTLREAGPSVAVDSSGRRAHLTVGQAAAGGSGNLLTERSTFTDSQLGNADMEMTLERAVSMLEADHMLPSRISAAATFIQHECFQKSEARKRVNQLRGILKLLQLLKVQNEDVQRAVCGALRNLVFEDNDNKLEVAELNGVPRLLQVLKQTRDLETKKQITDHTVNLRSRNGWPGAVAHACNPSTLGGQGGRITRSGVRDQPDQHGLLWNLSSNDKLKNLMITEALLTLTENIIIPFSGWPEGDYPKANGLLDFDIFYNVTGCLRNMSSAGADGRKAMRRCDGLIDSLVHYVRGTIADYQPDDKATENCVCILHNLSYQLEAELPEKYSQNIYIQNRNIQTDNNKSIGCFGSRSRKVKEQYQDVPMPEEKSNPKGVEWLWHSIVIRMYLSLIAKSVRNYTQEASLGALQNLTAGSGPMPTSVAQTVVQKESGLQHTRKMLHVGDPSVKKTAISLLRNLSRNLSLQNEIAKETLPDLVSIIPDTVPSTDLLIETTASACYTLNNIIQNSYQNARDLLNTGGIQKIMAISAGDAYASNKASKAASVLLYSLWAHTELHHAYKKAQFKKTDFVNSRTAKAYHSLKD
B3: Protein phosphatase 1 regulatory inhibitor subunit 16B (Homo sapiens), Q96T49 (parent)
chain: MASHVDLLTELQLLEKVPTLERLRAAQKRRAQQLKKWAQYEQDLQHRKRKHERKRSTGGRRKKVSFEASVALLEASLRNDAEEVRYFLKNKVSPDLCNEDGLTALHQCCIDNFEEIVKLLLSHGANVNAKDNELWTPLHAAATCGHINLVKILVQYGADLLAVNSDGNMPYDLCEDEPTLDVIETCMAYQGITQEKINEMRVAPEQQMIADIHCMIAAGQDLDWIDAQGATLLHIAGANGYLRAAELLLDHGVRVDVKDWDGWEPLHAAAFWGQMQMAELLVSHGASLSARTSMDEMPIDLCEEEEFKVLLLELKHKHDVIMKSQLRHKSSLSRRTSSAGSRGKVVRRASLSDRTNLYRKEYEGEAILWQRSAAEDQRTSTYNGDIRETRTDQENKDPNPRLEKPVLLSEFPTKIPRGELDMPVENGLRAPVSAYQYALANGDVWKVHEVPDYSMAYGNPGVADATPPWSSYKEQSPQTLLELKRQRAAAKLLSHPFLSTHLGSSMARTGESSSEGKAPLIGGRTSPYSSNGTSVYYTVTSGDPPLLKFKAPIEEMEEKVHGCCRIS
partner: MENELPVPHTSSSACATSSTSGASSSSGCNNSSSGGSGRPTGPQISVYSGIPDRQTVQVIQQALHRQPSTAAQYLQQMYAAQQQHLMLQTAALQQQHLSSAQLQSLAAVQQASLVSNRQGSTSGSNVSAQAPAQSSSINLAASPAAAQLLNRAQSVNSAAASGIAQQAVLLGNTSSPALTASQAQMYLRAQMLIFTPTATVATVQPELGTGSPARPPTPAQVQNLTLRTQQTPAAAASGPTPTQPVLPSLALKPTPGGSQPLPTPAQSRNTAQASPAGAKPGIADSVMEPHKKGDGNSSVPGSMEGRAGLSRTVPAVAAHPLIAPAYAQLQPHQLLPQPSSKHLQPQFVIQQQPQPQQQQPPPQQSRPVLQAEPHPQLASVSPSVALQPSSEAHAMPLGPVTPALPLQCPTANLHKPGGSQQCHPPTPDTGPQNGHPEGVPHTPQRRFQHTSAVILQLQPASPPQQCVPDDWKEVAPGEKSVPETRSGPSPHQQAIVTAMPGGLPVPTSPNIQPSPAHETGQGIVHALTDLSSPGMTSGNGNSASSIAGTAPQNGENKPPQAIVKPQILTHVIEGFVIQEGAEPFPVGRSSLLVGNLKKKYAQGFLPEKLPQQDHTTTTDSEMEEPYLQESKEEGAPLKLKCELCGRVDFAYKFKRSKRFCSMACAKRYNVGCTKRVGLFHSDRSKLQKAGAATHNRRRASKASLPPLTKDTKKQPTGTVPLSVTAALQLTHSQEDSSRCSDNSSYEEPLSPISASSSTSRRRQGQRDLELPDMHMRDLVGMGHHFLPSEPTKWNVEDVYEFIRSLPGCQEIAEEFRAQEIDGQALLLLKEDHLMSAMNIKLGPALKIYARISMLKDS
B4: Calcium-binding and coiled-coil domain-containing protein 2 (Homo sapiens), Q13137 (parent)
chain: MEETIKDPPTSAVLLDHCHFSQVIFNSVEKFYIPGGDVTCHYTFTQHFIPRRKDWIGIFRVGWKTTREYYTFMWVTLPIDLNNKSAKQQEVQFKAYYLPKDDEYYQFCYVDEDGVVRGASIPFQFRPENEEDILVVTTQGEVEEIEQHNKELCKENQELKDSCISLQKQNSDMQAELQKKQEELETLQSINKKLELKVKEQKDYWETELLQLKEQNQKMSSENEKMGIRVDQLQAQLSTQEKEMEKLVQGDQDKTEQLEQLKKENDHLFLSLTEQRKDQKKLEQTVEQMKQNETTAMKKQQELMDENFDLSKRLSENEIICNALQRQKERLEGENDLLKRENSRLLSYMGLDFNSLPYQVPTSDEGGARQNPGLAYGNPYSGIQESSSPSPLSIKKCPICKADDICDHTLEQQQMQPLCFNCPICDKIFPATEKQIFEDHVFCHSL
partner: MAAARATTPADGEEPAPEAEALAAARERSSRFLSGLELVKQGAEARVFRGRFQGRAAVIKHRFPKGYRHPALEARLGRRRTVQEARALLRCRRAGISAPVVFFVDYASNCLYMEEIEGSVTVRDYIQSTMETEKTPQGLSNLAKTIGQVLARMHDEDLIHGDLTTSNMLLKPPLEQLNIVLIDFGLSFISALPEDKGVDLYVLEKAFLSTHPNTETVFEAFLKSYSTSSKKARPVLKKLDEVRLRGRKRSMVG
B5: Transcription factor 12 (Homo sapiens), Q99081 (parent)
chain: MNPQQQRMAAIGTDKELSDLLDFSAMFSPPVNSGKTRPTTLGSSQFSGSGIDERGGTTSWGTSGQPSPSYDSSRGFTDSPHYSDHLNDSRLGAHEGLSPTPFMNSNLMGKTSERGSFSLYSRDTGLPGCQSSLLRQDLGLGSPAQLSSSGKPGTAYYSFSATSSRRRPLHDSAALDPLQAKKVRKVPPGLPSSVYAPSPNSDDFNRESPSYPSPKPPTSMFASTFFMQDGTHNSSDLWSSSNGMSQPGFGGILGTSTSHMSQSSSYGNLHSHDRLSYPPHSVSPTDINTSLPPMSSFHRGSTSSSPYVAASHTPPINGSDSILGTRGNAAGSSQTGDALGKALASIYSPDHTSSSFPSNPSTPVGSPSPLTGTSQWPRPGGQAPSSPSYENSLHSLQSRMEDRLDRLDDAIHVLRNHAVGPSTSLPAGHSDIHSLLGPSHNAPIGSLNSNYGGSSLVASSRSASMVGTHREDSVSLNGNHSVLSSTVTTSSTDLNHKTQENYRGGLQSQSGTVVTTEIKTENKEKDENLHEPPSSDDMKSDDESSQKDIKVSSRGRTSSTNEDEDLNPEQKIEREKERRMANNARERLRVRDINEAFKELGRMCQLHLKSEKPQTKLLILHQAVAVILSLEQQVRERNLNPKAACLKRREEEKVSAVSAEPPTTLPGTHPGLSETTNPMGHM
partner: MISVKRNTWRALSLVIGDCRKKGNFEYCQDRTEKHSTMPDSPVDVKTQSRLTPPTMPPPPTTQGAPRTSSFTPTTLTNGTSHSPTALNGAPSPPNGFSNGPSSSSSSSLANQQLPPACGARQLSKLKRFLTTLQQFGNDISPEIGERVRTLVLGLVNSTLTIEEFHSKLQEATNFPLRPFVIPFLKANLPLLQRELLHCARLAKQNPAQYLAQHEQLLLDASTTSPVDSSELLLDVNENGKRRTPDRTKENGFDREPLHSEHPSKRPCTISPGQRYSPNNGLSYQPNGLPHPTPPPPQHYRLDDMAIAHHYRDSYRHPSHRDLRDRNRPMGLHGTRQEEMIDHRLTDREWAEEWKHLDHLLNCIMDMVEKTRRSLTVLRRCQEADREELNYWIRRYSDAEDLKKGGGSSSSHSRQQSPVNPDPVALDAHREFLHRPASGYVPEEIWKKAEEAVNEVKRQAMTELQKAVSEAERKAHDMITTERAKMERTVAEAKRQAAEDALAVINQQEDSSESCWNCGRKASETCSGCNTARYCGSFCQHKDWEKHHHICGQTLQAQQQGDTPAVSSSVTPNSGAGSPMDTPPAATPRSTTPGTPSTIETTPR

Variants of: B1
Settings: with atosb_human ATOSB

Variant	effect of a mutation on the interaction
R204G	with no effect
D24Y	with no effect

Variants of: B2
Settings: with mtus2_human MTUS2, Q5JR59
Chain of mtus2_human MTUS2, Q5JR59 (Q5JR59 whole entry): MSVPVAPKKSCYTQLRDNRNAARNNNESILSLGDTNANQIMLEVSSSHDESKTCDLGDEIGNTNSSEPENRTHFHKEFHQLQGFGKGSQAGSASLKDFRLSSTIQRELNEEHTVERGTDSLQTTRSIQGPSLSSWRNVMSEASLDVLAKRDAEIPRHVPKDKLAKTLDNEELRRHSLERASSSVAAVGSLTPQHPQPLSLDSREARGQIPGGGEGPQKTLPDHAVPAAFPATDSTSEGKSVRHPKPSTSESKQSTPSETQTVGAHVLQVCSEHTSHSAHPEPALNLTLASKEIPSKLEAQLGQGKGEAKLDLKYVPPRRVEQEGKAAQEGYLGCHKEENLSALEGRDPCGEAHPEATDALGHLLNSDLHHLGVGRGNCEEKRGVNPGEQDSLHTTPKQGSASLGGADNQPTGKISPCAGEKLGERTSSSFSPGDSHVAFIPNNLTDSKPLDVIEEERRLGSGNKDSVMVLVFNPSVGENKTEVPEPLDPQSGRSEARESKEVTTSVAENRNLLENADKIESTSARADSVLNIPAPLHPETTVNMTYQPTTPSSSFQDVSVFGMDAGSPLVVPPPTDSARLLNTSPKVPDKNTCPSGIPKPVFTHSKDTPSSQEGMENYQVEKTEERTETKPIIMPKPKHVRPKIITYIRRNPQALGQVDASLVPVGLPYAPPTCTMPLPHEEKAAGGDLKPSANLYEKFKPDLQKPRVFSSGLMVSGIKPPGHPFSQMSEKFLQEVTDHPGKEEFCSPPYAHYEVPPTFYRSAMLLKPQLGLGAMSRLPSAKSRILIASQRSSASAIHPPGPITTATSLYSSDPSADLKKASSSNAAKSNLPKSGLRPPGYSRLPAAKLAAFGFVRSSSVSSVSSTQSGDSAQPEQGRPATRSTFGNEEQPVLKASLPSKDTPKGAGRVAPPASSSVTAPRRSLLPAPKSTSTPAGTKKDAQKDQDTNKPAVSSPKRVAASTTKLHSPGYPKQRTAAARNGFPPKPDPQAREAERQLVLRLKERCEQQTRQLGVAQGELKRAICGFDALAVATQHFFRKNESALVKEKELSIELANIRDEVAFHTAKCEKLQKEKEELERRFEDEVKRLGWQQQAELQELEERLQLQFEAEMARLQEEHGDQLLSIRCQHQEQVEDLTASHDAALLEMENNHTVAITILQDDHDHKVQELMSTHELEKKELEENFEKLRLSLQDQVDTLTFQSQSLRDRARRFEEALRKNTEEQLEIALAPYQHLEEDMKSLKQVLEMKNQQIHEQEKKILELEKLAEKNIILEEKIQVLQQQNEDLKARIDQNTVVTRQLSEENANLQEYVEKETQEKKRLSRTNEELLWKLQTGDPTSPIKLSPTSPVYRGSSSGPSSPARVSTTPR

Variant	effect of a mutation on the interaction
E58D	with no effect
A264V	with no effect
L366P	with no effect

Variants of: B3
Settings: with phc2_human PHC2, Q8IXK0

Variant	effect of a mutation on the interaction
P519S	with no effect

Variants of: B4
Settings: with prpk_human TP53RK

Variant	effect of a mutation on the interaction
V248A	with no effect

Variants of: B5
Settings: with mtg8_human RUNX1T1, Q06455

Variant	effect of a mutation on the interaction
N479S	with no effect
G64R	with no effect
I11M	with no effect
G300S	with no effect
